Molecular target: epidermal growth factor receptor (EGFR) on A431 human epidermoid cells (human) (UniProt P00533)
Test: cell-based or functional assay

streptavidin-TGF-α fusion protein (ST-TGF) (from UniProt P22629 40-157; P01135 40-89)
mean fluorescence activity (biotin-β-galactosidase delivered into each A431 cell, FACS): 214
positive cells (delivery of biotin-β-galactosidase into A431 cells, staining and FACS): > 99%
